Test results from PMC12573921, “‘Mix-it-up’: accessible time-resolved cryo-EM on the millisecond timescale” (IUCrJ, 2025).

B1: E. coli GroES (natural protein, UniProt P0A6F9 1-97, looked up)
chain: MNIRPLHDRVIVKRKEVETKSAGGIVLTGSAAAKSTRGEVLAVGNGRILENGEVKPLDVKVGDIVIFNDGYGVKSEKIDNEEVLIMSESDILAIVEA
notes: GroES co-chaperonin of E. coli; purified as in Godek et al., 2024; source: T7 Express E. coli, Trc-promoted GroES/GroEL plasmid, purified (ion exchange, FFSP column at pH 4.6, Superdex 75); gift from the Steven Johnson laboratory
B2: Cowpea chlorotic mottle virus (CCMV) coat protein (natural protein)
chain: MSTVGTGKLTRAQRRAAARKNKRNTRVVQPVIVEPIASGQGKAIKAWTGYSVSKWTASCAAAEAKVTSAITISLPNELSSERNKQLKVGRVLLWLGLLPSVSGTVKSCVTETQTTAAASFQVALAVADNSKDVVAAMYPEAFKGITLEQLTADLTIYLYSSAALTEGDVIVHLEVEHVRPTFDDSFTPVY
notes: also called CCMV capsid; copies: 180

Assays:
[1] = target: the molecule itself; assay: cryo-EM structure; 8.6 µM GroEL + 17.1 µM GroES on the grid, 83.3 mM ATP with gold fiducials sprayed with MIU, 300 ms
cryo-EM structure = target: the molecule itself; assay: cryo-EM structure

Protein | stoichiometry N [1] | binding result (cryo-EM structure)
B1 | 7 | –
B2 | – | binds
